Data reported in patent US20020031818A1, “Modification of Mdm2 activity” (priority 2000, published 2002).

Key:
[1] = target: T1, Ubc9 (Mus musculus, UniProt P63280); assay: Co-immunoprecipitation of Ubc9 with HA-tagged peptide expressed in NIH 3T3 cells; format: cell-based; settings: HA-tagged penetratin peptide vector, 36 h after transfection
T1 construct: endogenous in cells; host or cells: NIH 3T3
Procedure: (§1) FIGS. 9A and 9B. A. A peptide corresponding to aa 40-59 on Mdm2 binds Ubc9. mu9bs (Mdm2 Ubc9 binding site) corresponding to aa 40-59 of Mdm2 and its control scrambled counterpart peptide mu9sb (were immobilized on an AminoLink column [Pierce]). 50 μl of peptide-bound beads were incubated with 1 mg of cell lysates from EJ mouse fibroblast cells. Beads were washed extensively with 0.5M LiCl/TBS and eluates were separated on a 14% gel. B. Ubc9 binds to mu9bs in vivo. NIH 3T3 cells were transfected with wt or mutant Ubc9 binding site peptide. 36 h after transfection cells were lysed and lysates were immunoprecipitated with HA-antibodies directed against the HA-tag of transfected peptides. Upper panel depicts to Co-immunoprecipitation of Ubc9 with the wt but not the mutant peptide.
Vectors described in Example I were used in the present example. The sequence of the Ubc-9 binding domain on Mdm2 (aa 40-59, Mdm2 Ubc9 binding site; mu9bs) in wt or in a scrambled orientation (mu9sb) was cloned in frame between EcoRI and XhoI restriction sites into a pcDNA3 that carries the penetration sequence, followed by the sequence encoding the HA-tag. All Mdm2 mutants were cloned in pBluescipt KS. Mutant Ubc9C93S was a gift from Olli Jänne.
To further confirm the ability of the peptide corresponding to mu9bs to associate with Ubc9 we carried out in vivo reactions. […]

[2] = target: T2, GST-Mdm2 (Homo sapiens, UniProt Q00987); assay: In vitro conjugation of SUMO-1 to GST-Mdm2 (in vitro sumoylation); format: biochemical
T2 construct: made in house
Procedure: A. Time dependent Mdm2 sumoylation in vitro. Bacterially expressed and purified GST-Mdm2 was subjected to in vitro sumoylation reaction in the presence of E1, Ubc9, and ^35S-Sumos. Reaction was terminated after 10,30,50 or 60 minutes, Proteins were separated on 8% gel, Commassie stained, dryed and exposed overnight (upper panel). Lower panel depicts Commassie blue staining of Mdm2 forms. […] (Upper part) The specific Ubc-9-binding site peptide or a nonspecific peptide was added to the reaction for the indicated time periods. […] The lower panel depicts a Coomassie staining visualizing relative amounts of sumoylated and non-sumoylated forms of purified GST-Mdm2. C. The Mdm2 sumoylation assay was carried out in the presence of Ubc-9-binding site peptide (mu9bs) or a nonspecific peptide (mu9bs) which were added to the reaction at the indicated concentrations. […] Mdm2/p53 double null cells were transfected with Flag-tagged Mdm2, HA-tagged Sumo-1 and increasing amounts of the specific or nonspecific Ubc-9-peptides, respectively. Cells were harvested 36 h later and 500 μg of protein was immunoprecipitated using Mdm2 antibodies (2A10). Immunoprecipitated Mdm2 levels were detected using 2A10 antibodies (top). The same membrane was stripped and reprobed using monoclonal antibodies against Sumo-1 (Zymed, middle) to visualize the level of Sumo-1 conjugation to Mdm2 after Ubc-9-peptide expression.
A. Bacterially expressed and purified Mdm2 (1 μg) was incubated with ^32P-labeled Sumo-1, purified Aos1/Uba2 and Ubc9 (0.5 μg) for 60 min at 37° C. in conjugation buffer. For indicated time-periods in vitro translated wt or mutant p19^ARF (0.5 mg) was added to the sumoylation reactions. Upper panel depicts the amount of Sumoylated Mdm2, lower panel reveal the level of Mdm2 and Sumo-Mdm2 in Coomassie blue gel. B. Bacterially expressed and purified Mdm2 (1 μg) was incubated with in vitro-translated ^35S-Sumo, purified Aos1/Uba2 and Ubc9 (0.5 μg) for 60 min at 37° C. in conjugation buffer in the presence of the increasing amounts of bacculovirus-expressed p19^ARF (0, 0.1, 0.5, 1 μg; lanes 1-4 respectively). Bead-bound complexes were washed before being denatured in 3× Sample Buffer. Proteins were separated on 8% SDS-PAGE. Gel was stained with Coomassie blue to verify equal Mdm2 input (lower panel), dried and exposed to X-ray film, which depicts SUMO-1 conjugation to Mdm2 in the presence of the indicated p19 forms (upper panel). […] Double-null cells were transfected with Flag-tagged Mdm2 (1.5 μg), HA-tagged SUMO (1.5 μg) and p19 wt (1.5 μg). Cells were treated with MG132 (40 mM) for 5 h prior to protein preparation. […] (Left) Immunoprecipitated Mdm2 was detected using monoclonal Mdm2 antibodies (2A10, left). […]

[3] = target: T3, Mdm2 (Homo sapiens, UniProt Q00987); assay: In vivo sumoylation of Mdm2 in p53/Mdm2 double null cells; format: cell-based; settings: p53/Mdm2 double null cells, Flag-Mdm2, HA-Sumo-1, increasing amounts of peptide, 36 h
T3 construct: expressed in transfected cells; host or cells: p53/Mdm2 double null cells
Procedure: FIGS. 10A-10D. A. Time dependent Mdm2 sumoylation in vitro. Bacterially expressed and purified GST-Mdm2 was subjected to in vitro sumoylation reaction in the presence of E1, Ubc9, and ^35S-Sumos. Reaction was terminated after 10,30,50 or 60 minutes, Proteins were separated on 8% gel, Commassie stained, dryed and exposed overnight (upper panel). Lower panel depicts Commassie blue staining of Mdm2 forms. B. A peptide corresponding to the Ubc-9 binding site on Mdm2 decreases Mdm2 in vitro sumoylation of Mdm2 in a time-dependent manner. (Upper part) The specific Ubc-9-binding site peptide or a nonspecific peptide was added to the reaction for the indicated time periods. […] The lower panel depicts a Coomassie staining visualizing relative amounts of sumoylated and non-sumoylated forms of purified GST-Mdm2. C. The Mdm2 sumoylation assay was carried out in the presence of Ubc-9-binding site peptide (mu9bs) or a nonspecific peptide ([…]) which were added to the reaction at the indicated concentrations. […] D. A peptide corresponding to the Ubc-9 binding site on Mdm2 decreases Mdm2 sumoylation in vivo. […] Immunoprecipitated Mdm2 levels were detected using 2A10 antibodies (top). […]
FIG. 13A-13E. […] (Left) Immunoprecipitated Mdm2 was detected using monoclonal Mdm2 antibodies (2A10, left). […]

[4] = system: Mdm2 association with p53; assay: p53 immunoprecipitation and immunoblot for bound Mdm2 form and p53 level in peptide-expressing cells; format: cell-based
Procedure: FIG. 11. Ubc9 binding affects the form of Mdm2 associated with p53. Mdm2/p53 double null cells were transfected with mu9sb or the wild type form mu9bs together with p53 and Mdm2. 36 h after transfection protein extracts were prepared and used for immunoprecipitation of p53 (using D01 antibodies). Immunoprecipitated material was analyzed via immunoblotting using antibodies to Mdm2, enabling to reveal the two major forms of Mdm2, indicated.
Therefore, we transfected human fibroblasts with mu9bs or mu9sb peptides. Immunoprecipitation of p53 was followed by Western blot analysis to determine the type and level of Mdm2 bound to p53 under each of these conditions.

[5] = target: T1, Ubc9; assay: Ubc9 capture by peptide immobilized on AminoLink column, Western blot; format: binding; settings: peptide-bound beads incubated with cell lysates from EJ mouse fibroblast cells; Western blot with Ubc9 antibodies
Procedure: as §1
Immunobilization of peptides to an AminoLink® column (Pierce Biochemical) was carried out exactly according to the manufacturer's protocol. In brief, column was equilibrated with coupeling buffer and 1 column volume of solution containing 1 mg of peptide was incubated with gel for 6 h. Later column was drained and washed with coupeling buffer. […]
To further assess the role of the Ubc-9 binding domain in Mdm2 sumoylation, a peptide that corresponds to aa 40-59 of Mdm2 was synthesized. […] Beads coupled to the peptides were incubated with cell lysates and bound proteins were analyzed in Western blots using antibodies to Ubc9.

[6] = target: T4, Ubc9 binding to Mdm2 (Homo sapiens, UniProt Q00987); assay: In vitro binding of Ubc9 to GST-Mdm2; settings: GST-Mdm2 phosphorylated by active p38 kinase
T4 construct: made in house; host or cells: GST-Mdm2: bacteria; Ubc9: in vitro translation
Procedure: FIGS. 17A and 17B. A. p19^ARF decreases Ubc9 binding to Mdm2. Bacterially expressed and purified GST-Mdm2 (1 μg) was incubated with ^35S-labeled in vitro translated p19^ARF and Ubc9 at the indicated ratios. After 30 min of incubation GSH beads bound-GST-Mdm2 were washed and separated on a 12% SDS-PAGE. Gel was dried and subjected to autoradiograph, depicting relative amounts of Ubc9 and p19^ARF bound to Mdm2. B. Bacterially expressed and purified GST-Mdm2 (1 μg) was phosphorylated by purified form of active p38 kinase as indicated. Phosphorylated or un-phosphorylated Mdm2 was incubated for 30 min with in vitro translated UbcH5b and Ubc9 (25 μl). Beads were washed and separated on a 12% SDS-PAGE. Gel was dried and exposed to X-ray film. Position of Ubc9 and UbcH5b is shown.
A prerequisite for Mdm2 sumoylation is the association of Ubc9, the SUMO conjugating enzyme, with Mdm2, which enables subsequent conjugation of SUMO-1 to Mdm2. Inhibition of Ubc9's association with Mdm2 attenuates Mdm2 sumoylation. Given the effect of p19^ARF on Mdm2 sumoylation, we proceeded to determine whether p19^ARF may alter Ubc9 binding to Mdm2. To this end we performed an in vitro binding assay, using in vitro translated p19^ARF and Ubc-9, as indicated. […] We next assessed possible changes in Ubc9 binding to Mdm2 upon its phosphorylation by p38.

T2 sequence (Q00987 whole entry): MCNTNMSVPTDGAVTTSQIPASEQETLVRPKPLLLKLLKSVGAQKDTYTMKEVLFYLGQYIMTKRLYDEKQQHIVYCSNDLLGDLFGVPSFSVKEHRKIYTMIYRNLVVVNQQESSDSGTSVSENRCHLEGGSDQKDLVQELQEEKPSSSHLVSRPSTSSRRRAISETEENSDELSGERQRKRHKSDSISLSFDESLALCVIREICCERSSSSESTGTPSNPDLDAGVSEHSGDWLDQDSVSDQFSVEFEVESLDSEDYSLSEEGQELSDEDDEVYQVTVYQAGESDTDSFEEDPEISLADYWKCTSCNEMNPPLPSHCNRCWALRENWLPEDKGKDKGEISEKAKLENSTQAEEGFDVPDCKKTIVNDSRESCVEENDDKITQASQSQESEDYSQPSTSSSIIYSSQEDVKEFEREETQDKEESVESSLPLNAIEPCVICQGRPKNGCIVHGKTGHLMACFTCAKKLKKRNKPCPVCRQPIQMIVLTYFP
T1 sequence (P63280 whole entry): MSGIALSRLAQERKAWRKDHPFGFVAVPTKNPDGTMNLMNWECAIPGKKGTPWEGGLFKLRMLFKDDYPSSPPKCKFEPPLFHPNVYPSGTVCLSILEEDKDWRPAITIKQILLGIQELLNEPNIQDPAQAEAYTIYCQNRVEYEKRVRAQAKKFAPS
T3 sequence (Q00987 whole entry): as the sequence (Q00987 whole entry) above
T4 sequence (Q00987 whole entry): as above

| association of expressed peptide with Ubc9 in vivo [1] | capture of Ubc9 by column-coupled peptide [5] | Ubc9 binding to Mdm2 upon in vitro phosphorylation of Mdm2 [6] | Substance | Mdm2 sumoylation in vitro, increasing concentrations of peptide [2] | Mdm2 sumoylation in vitro, peptide added for different periods of time ([2]; peptide present 0-50 min of 60 min reaction) | degree of Mdm2 sumoylation in vivo upon peptide co-expression [3] | overall level of p53 expression [4] | form of Mdm2 (75 kDa non-sumoylated / 90 kDa sumoylated) associated with p53 ([4]; peptide expression, p53 immunoprecipitation) |
| --- | --- | --- | --- | --- | --- | --- | --- | --- |
| associated with Ubc9 | captured Ubc9 |  | mu9bs: peptide that corresponds to aa 40-59 of Mdm2 (mdm2 Ubc9 binding site) (SVGAQKDTYTMKEVLFYLGQ) | dose-dependent decrease of Mdm2 sumoylation | sufficient to attenuate Mdm2 sumoylation in a manner that coincided with the length of the incubation | dose-dependent decrease in the degree of Mdm2 sumoylation in vivo | increased level of p53 | p53 association only with the non-sumoylated form of Mdm2 |
|  |  | marked decrease in Ubc9 binding to Mdm2 | p38: purified active p38 kinase that phosphorylates Mdm2 |  |  |  |  |  |
